Laboratory results published in paper PMC5456053.

Columns and labels:
[1] = target: SecYEG-SecDF•YajC (E. coli) (UniProt P0AGA2)
[2] = target: SecA C34 (C-terminal 34 kD protein; SecA 610-901) (E. coli) (UniProt P10408)

Row | % pOmpA Translocation, +YEG: in vitro translocation of pOmpA into liposomes with SecYEG-SecDF•YajC (% pOmpA Translocation) [1] | Channel Activity, μA, +YEG: ion current in Xenopus oocytes injected with the fragment, liposomes, SecYEG-SecDF•YajC, pOmpA, ATP-Mg [1] | translocation of pOmpA, liposomes with SecYEG-SecDF•YajC, N-fragment reconstituted with C34 (Fig 6B) (% of the activity of intact SecA) [2] | Binder
1 | 0 | 5.8 μA | 50 | SecA N668 (SecA 1-668) (domain or fragment) MLIKLLTKVFGSRNDRTLRRMRKVVNIINAMEPEMEKLSDEELKGKTAEFRARLEKGEVLENLIPEAFAVVREASKRVFGMRHFDVQLLGGMVLNERCIAEMRTGEGKTLTATLPAYLNALTGKGVHVVTVNDYLAQRDAENNRPLFEFLGLTVGINLPGMPAPAKREAYAADITYGTNNEYGFDYLRDNMAFSPEERVQRKLHYALVDEVDSILIDEARTPLIISGPAEDSSEMYKRVNKIIPHLIRQEKEDSETFQGEGHFSVDEKSRQVNLTERGLVLIEELLVKEGIMDEGESLYSPANIMLMHHVTAALRAHALFTRDVDYIVKDGEVIIVDEHTGRTMQGRRWSDGLHQAVEAKEGVQIQNENQTLASITFQNYFRLYEKLAGMTGTADTEAFEFSSIYKLDTVVVPTNRPMIRKDLPDLVYMTEAEKIQAIIEDIKERTAKGQPVLVGTISIEKSELVSNELTKAGIKHNVLNAKFHANEAAIVAQAGYPAAVTIATNMAGRGTDIVLGGSWQAEVAALENPTAEQIEKIKADWQVRHDAVLEAGGLHIIGTERHESRRIDNQLRGRSGRQGDAGSSRFYLSMEDALMRIFASDRVSGMMRKLGMKPGEAIEHPWVTKAIANAQRKVESRNFDIRKQLLEYDDVANDQRRAIYSQRNELLD
2 |  | 2.2 μA | 50 | SecA N640 (SecA 1-640) (domain or fragment) MLIKLLTKVFGSRNDRTLRRMRKVVNIINAMEPEMEKLSDEELKGKTAEFRARLEKGEVLENLIPEAFAVVREASKRVFGMRHFDVQLLGGMVLNERCIAEMRTGEGKTLTATLPAYLNALTGKGVHVVTVNDYLAQRDAENNRPLFEFLGLTVGINLPGMPAPAKREAYAADITYGTNNEYGFDYLRDNMAFSPEERVQRKLHYALVDEVDSILIDEARTPLIISGPAEDSSEMYKRVNKIIPHLIRQEKEDSETFQGEGHFSVDEKSRQVNLTERGLVLIEELLVKEGIMDEGESLYSPANIMLMHHVTAALRAHALFTRDVDYIVKDGEVIIVDEHTGRTMQGRRWSDGLHQAVEAKEGVQIQNENQTLASITFQNYFRLYEKLAGMTGTADTEAFEFSSIYKLDTVVVPTNRPMIRKDLPDLVYMTEAEKIQAIIEDIKERTAKGQPVLVGTISIEKSELVSNELTKAGIKHNVLNAKFHANEAAIVAQAGYPAAVTIATNMAGRGTDIVLGGSWQAEVAALENPTAEQIEKIKADWQVRHDAVLEAGGLHIIGTERHESRRIDNQLRGRSGRQGDAGSSRFYLSMEDALMRIFASDRVSGMMRKLGMKPGEAIEHPWVTKAIANAQRKVESRNFD
